# Assay results published in patent US20100009907A1, “Glucagon-Like Peptides and Uses Thereof” (AMYLIN PHARMACEUTICALS, INC., priority 2006, published 2010).
# Where no end group is shown, it is not given here.
# B1: SEQ ID NO 1 (peptide)
# peptide: HAEGTFTSDVTQQLDEKAAKEFIDWLINGGPSKEIIS-OH
# notes: also called nmGLP-1 peptide; naturally occurring nmGLP-1
# B2: SEQ ID NO 2 (peptide)
# peptide: HAEGTYTNDVTEYLEEKAAKEFIEWLIKGKPKKIRYS
# notes: as for B1
# B3: SEQ ID NO 48 (peptide)
# peptide: HADGTYTSDVSSYLQDQAAKDFITWLKSGQPKPDAVET
# notes: as for B1
# B4: SEQ ID NO 49 (peptide)
# peptide: HADGTYTSDVSSYLQDQAAKDFITWLKSGQPKPDAVETRSVDTL
# notes: as for B1
# B5: SEQ ID NO 51 (peptide)
# peptide: YADAPYISDVYSYLQDQVAKKWLKSGQD
# notes: as for B1
# B6: SEQ ID NO 52 (peptide)
# peptide: HADGTFTNDMTSYLDAKAARDFVSWLARSDKS
# notes: as for B1
# Target: T1, GLP-1 receptor (endogenous, RINm5F cell membranes; rat thyroid carcinoma 6-23 clone 6 cells) (rat, UniProt P32301 22-463)
# T1 sequence (looked up): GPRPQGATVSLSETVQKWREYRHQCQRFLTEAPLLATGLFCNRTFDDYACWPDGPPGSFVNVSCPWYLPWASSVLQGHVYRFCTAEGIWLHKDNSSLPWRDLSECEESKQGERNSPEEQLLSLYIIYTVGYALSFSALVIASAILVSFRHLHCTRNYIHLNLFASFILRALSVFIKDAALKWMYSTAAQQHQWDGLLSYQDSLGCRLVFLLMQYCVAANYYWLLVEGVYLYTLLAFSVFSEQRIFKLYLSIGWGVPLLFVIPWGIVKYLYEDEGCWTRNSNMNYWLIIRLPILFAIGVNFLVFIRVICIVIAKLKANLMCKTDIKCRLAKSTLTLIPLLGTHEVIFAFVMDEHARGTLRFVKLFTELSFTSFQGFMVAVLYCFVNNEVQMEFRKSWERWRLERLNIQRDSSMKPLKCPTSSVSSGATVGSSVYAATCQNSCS
# Experiment: cell-based or functional assay
row,Binder,GLP-1 cAMP (6-23) EC50 [nM]
1,B1,7.7
2,EGTYTNDVTEYLEEKAAKEFIEWLIKGKPKKIRYS (also called nmGLP-1 analog) [SEQ ID NO 37],> 1000
3,HAEGTYTNDVTEYLEEKAAKEFIEWLIKGKPKKIRY (also called nmGLP-1 analog) [SEQ ID NO 34],0.095
4,HAEGTYTNDVTEYEEKAAKEFIEWLIKGKPKKIRYS (also called nmGLP-1 analog) [SEQ ID NO 38],104
5,HAEGTYTNDTEYLEEKAAKEFIEWLIKGKPKKIRYS (also called nmGLP-1 analog) [SEQ ID NO 39],> 1000
6,HAEGTYTNDVTYLEEKAAKEFIEWLIKGKPKKIRYS (also called nmGLP-1 analog) [SEQ ID NO 41],220
7,HAEGTYTNDVTELEEKAAKEFIEWLIKGKPKKIRYS (also called nmGLP-1 analog) [SEQ ID NO 33],145
8,HAEGTYTNDVTEYLEEAAKEFIEWLIKGKPKKIRYS (also called nmGLP-1 analog) [SEQ ID NO 30],> 1000
9,HAEGTYTNDVTEYLEEKAAKFIEWLIKGKPKKIRYS (also called nmGLP-1 analog) [SEQ ID NO 31],44
10,HAEGTYTNDVTEYLEKAAKEFIEWLIKGKPKKIRYS (also called nmGLP-1 analog) [SEQ ID NO 29],930
11,HXEGTYTNDVTEYLEEKAAKEFIEWL (dAla at position 2 (a = dAla)) [SEQ ID NO 45],34
12,HAEGTYTNDVTEYLEEKAAKEFIEWLIKGKPK [SEQ ID NO 40],0.12
13,HXEGTYTNDVTEYLEEKAAKEFIEWLI (dAla at position 2 (a = dAla)) [SEQ ID NO 43],0.14
14,HAEGTYTNDVTEYLEEKAAKEFIEWLI [SEQ ID NO 42],0.22
15,B2,0.82
16,HGEGTYTNDVTEYLEEKAAKEFIEWLIKGKPKKIRYS (also called nmGLP-1 analog) [SEQ ID NO 26],0.16
17,HAEGTFTSDVTQQLDEKAAKEFIDWLINPGSEGIKSI (also called nmGLP-1 analog) [SEQ ID NO 14],2.2
18,HAEGTYTNDVTEYLEEKAAKEFIEW [SEQ ID NO 46],1940
19,HAEGTYTNDVTEYLEEKAAKEFIEWLIGKPKKIRYS (also called nmGLP-1 analog) [SEQ ID NO 35],0.172
20,HAEGTYTNDVTEYLEEKAAKEFIEWLIKGPKKIRYS (also called nmGLP-1 analog) [SEQ ID NO 36],0.086
21,HAEGTYTNDVTEYLEEKAAKEFIEWL [SEQ ID NO 44],23
22,HAEGTYTNDVTEYLEEKAAKEFIEWLIPKKIRYS (also called nmGLP-1 analog) [SEQ ID NO 32],8.3
23,B3,2.34
24,HXEGTYTNDVTQFLEEKAAKEFIDWLIKGKPKKQRLS (Abu (2-Aminobutyric acid) at position 2),0.12

# Target: endogenous GLP-1, calcitonin, and GIP receptors of RINm5f cells
# Experiment: cell-based or functional assay
row,Binder,GLP/GIP/CT cAMP(RIN) EC50 [nM]
1,B1,1.9
2,HAEGTFTSDVTQQLDEKAAKEFIDALINGGPSKEIIS (also called nmGLP-1 analog) [SEQ ID NO 13],196
3,HAEGTFTSDVTQQLDEKAAKEFIDWLINGGASKEIIS (also called nmGLP-1 analog) [SEQ ID NO 12],0.29
4,HXEGTFTSDVTQQLDEKAAKEFIDWLIN (here or on the partner: dAla at position 2 (a = dAla)) [SEQ ID NO 8],19
5,HXEGTYTNDVTEYLEEKAAKEFIEWLIKGKPKKIRYS (here or on the partner: dAla at position 2 (a = dAla)) [SEQ ID NO 23],0.22
6,HXEGTYTNDVTEYLEEKAAKEFIEWLIKGKPKKIRYS (here or on the partner: Aib (2-Aminoisobutyric acid) at position 2),0.544
7,HAEGTFTSDVTQQLDEKAAKEFIDWLINGGPSSGAPPPS [SEQ ID NO 9],0.28
8,HAEGTYTNDVTEYLEEKAAKEFIEWLINGGPSKEIIS (also called nmGLP-1 analog) [SEQ ID NO 21],1
9,HAEGTYTNDVTEYLEEKAAKEFIEWLIN (also called nmGLP-1 analog) [SEQ ID NO 24],0.85
10,HAEGTYTNDVTEYLEEKAAKEFIEWLIK (also called nmGLP-1 analog) [SEQ ID NO 25],0.53
11,HAEGTFTNDMTNYLEEKAAKEFVGWLIKGRS (also called nmGLP-1 analog) [SEQ ID NO 6],1.23
12,HAEGTFTSDVTQQLDEKAAKEFIDWLIN (also called nmGLP-1 analog) [SEQ ID NO 7],4.7
13,HAEGTFTSDVTQQLEEKAAKEFIEWLIKGKPKKIRYS (also called nmGLP-1 analog) [SEQ ID NO 22],0.1
14,B2,0.36
15,HGEGTYTNDVTEYLEEKAAKEFIEWLIKGKPKKIRYS (also called nmGLP-1 analog) [SEQ ID NO 26],0.967
16,HAEGTFTSDVTQQLDEKAAKEFIDWLINPGSEGIKSI (also called nmGLP-1 analog) [SEQ ID NO 14],18
17,B4,415
18,B5,971
19,B6,382
20,B3,14
21,HAEGTFTSDVTQQLDEKAAKEFIDWLINGGPSKEIIS (also called nmGLP-1 analog) [SEQ ID NO 11],0.59
22,HXEGTFTSDVTQQLDEKAAKEFIDWLINGGPSKEIIS (here or on the partner: dAla at position 2 (a = dAla)),0.048
23,HAEGTYTNDVTQFLEEKAAKEFIDWLIKGKPKKQRLS [SEQ ID NO 50],0.14
24,HXEGTYTNDVTQFLEEKAAKEFIDWLIKGKPKKQRLS (here or on the partner: Abu (2-Aminobutyric acid) at position 2),0.146
25,HXEGTYTNDVTQFLEEKAAKEFIDWLIKGKPKKQRLS (here or on the partner: dAla at position 2 (a = dAla)) [SEQ ID NO 54],0.435
26,HGEGTYTNDVTQFLEEKAAKEFIDWLIKGKPKKQRLS (also called nmGLP-1 analog) [SEQ ID NO 55],0.576

# Target: T1, GLP-1 receptor (endogenous, RINm5F cell …)
# Experiment: displacement of [125I]GLP-1 from RINm5F cell membranes (GLP RBA)
# Description: GLP-1 receptor binding activity and affinity can be measured using a binding displacement assay in which the receptor source is RINm5F cell membranes, and the ligand is [¹²⁵I]GLP-1. Homogenized RINm5F cell membranes are incubated in 20 mM HEPES buffer with 40,000 cpm [¹²⁵I]GLP-1 tracer, and varying concentrations of test compound for 60 minutes at 23° C. with constant mixing. Reaction mixtures are filtered through glass filter pads presoaked with 0.3% PEI solution and rinsed with ice-cold phosphate buffered saline. Bound counts are determined using a scintillation counter. Binding affinities are calculated using GraphPad Prism software (GraphPad Software, Inc., San Diego, Calif.).
row,Binder,IC50 [nM]
1,HAEGTFTSDVTQQLDEKAAKEFIDWLINGGASKEIIS (also called nmGLP-1 analog) [SEQ ID NO 12],8.8
2,"HXEGTYTNDVTEYLEEKAAKEFIEWLIKGKPKKIRYS (Aib (2-Aminoisobutyric acid) at position 2, also called nmGLP-1 analog)",0.1
3,"HXEGTYTNDVTEYLEEKAAKEFIEWLIKGKPKKIRYS (Abu (2-Aminobutyric acid) at position 2, also called nmGLP-1 analog) [SEQ ID NO 28]",0.067
4,HAEGTYTNDVTEYLEEKAAKEFIEWLINGGPSKEIIS (also called nmGLP-1 analog) [SEQ ID NO 21],2.1
5,HAEGTYTNDVTEYLEEKAAKEFIEWLIN (also called nmGLP-1 analog) [SEQ ID NO 24],1.3
6,HAEGTYTNDVTEYLEEKAAKEFIEWLIK (also called nmGLP-1 analog) [SEQ ID NO 25],0.54
7,HAEGTYTNDVTEYLEEKAAKEFIEWLIKGKPKKIRY (also called nmGLP-1 analog) [SEQ ID NO 34],15
8,HAEGTYTNDVTEYEEKAAKEFIEWLIKGKPKKIRYS (also called nmGLP-1 analog) [SEQ ID NO 38],42
9,HAEGTYTNDTEYLEEKAAKEFIEWLIKGKPKKIRYS (also called nmGLP-1 analog) [SEQ ID NO 39],61
10,HAEGTYTNDVTYLEEKAAKEFIEWLIKGKPKKIRYS (also called nmGLP-1 analog) [SEQ ID NO 41],9
11,HAEGTYTNDVTELEEKAAKEFIEWLIKGKPKKIRYS (also called nmGLP-1 analog) [SEQ ID NO 33],81
12,HAEGTYTNDVTEYLEEAAKEFIEWLIKGKPKKIRYS (also called nmGLP-1 analog) [SEQ ID NO 30],537
13,HAEGTYTNDVTEYLEKAAKEFIEWLIKGKPKKIRYS (also called nmGLP-1 analog) [SEQ ID NO 29],91
14,HAEGTFTSDVTQQLEEKAAKEFIEWLIKGKPKKIRYS (also called nmGLP-1 analog) [SEQ ID NO 22],0.067
15,B4,74
16,B5,111
17,B6,0.9
18,HAEGTFTSDVTQQLDEKAAKEFIDWLINGGPSKEIIS (also called nmGLP-1 analog) [SEQ ID NO 11],2.3
19,"HXEGTFTSDVTQQLDEKAAKEFIDWLINGGPSKEIIS (dAla at position 2 (a = dAla), also called nmGLP-1 analog)",1.9
20,HGEGTYTNDVTQFLEEKAAKEFIDWLIKGKPKKQRLS (also called nmGLP-1 analog) [SEQ ID NO 55],0.05
